Measurements as given in IntAct's records for PubMed 19494831.

B1: Polycomb protein Sfmbt (Drosophila melanogaster (Fruit fly)), Q9VK33 (parent)
chain: MNPSELRMMWMSSQYNSERITLEDAATLLGHPTVGLSVMEDLSAHQPTLDMNPMMSLMGGDFTGQAAATAAALGVQPGTLIATNSNNLYGFAHMGGLQQQLLQQSAAAAVFQNYAEAMDNDVENGMVGMAMEAVVDDDDQVYGQRDNNFDDNGSELEPKQEIINIDDFVMMNEDNNSYDGTDFMTSSDKDISQSSSSCMAQMPGSLGVPGVEHDLLVPLPDGLLHHKLLGTTLVPAMGTLNGNAFGNIMVSTENTSSKQMQRTYSTAKGANSTATTATCSASTSSALRSQRKTRKIEPVNRPGLVLKTPIAYRGNIDPSVIPIQKDGMAVCKRCGAIGVKHTFYTKSRRFCSMACARGELYSLVLNTKMEGDQATTSSPDPGAGSESADLPGDQQQSQSDIELDLHAAHIKNANYRFRITDQSKITQLNSFGEPMSMGGDAAANNVQMAADETIAALNGGAVGDATAPGSTEEGASTPNSYLSAAPTPKALRLFKDIYPQDDLPQIPKYERLPVPCPQMEKIISIRRRMYDPTHSYDWLPRLSKENFNAAPVTCFPHAPGCEVWDNLGVGMKVEVENTDCDSIEVIQPGQTPTSFWVATILEIKGYKALMSYEGFDTDSHDFWVNLCNAEVHSVGWCATRGKPLIPPRTIEHKYKDWKDFLVGRLSGARTLPSNFYNKINDSLQSRFRLGLNLECVDKDRISQVRLATVTKIVGKRLFLRYFDSDDGFWCHEDSPIIHPVGWATTVGHNLAAPQDYLERMLAGREAMIEVHEDDATIELFKMNFTFDEYYSDGKTNSFVEGMKLEAVDPLNLSSICPATVMAVLKFGYMMIRIDSYQPDASGSDWFCYHEKSPCIFPAGFCSVNNISVTPPNGYDSRTFTWEGYLRDTGAVAAGQHLFHRIIPDHGFEVGMSLECADLMDPRLVCVATVARVVGRLLKVHFDGWTDEYDQWLDCESADIYPVGWCVLVNHKLEGPPRVAHQQAPKPAPKPKIQRKRKPKKGAAGGKTPTDNNTQSVKSRTIALKTTPHLPKLSIKLELKPEHHNAAFYENNQPEEEGDEEDPDADGDGDGSTSHISEQSTTQSSSDLIAGSGSGSGSASLVTLATGSNKTNSSATNNKYIPRLADIDSSEPHLELVPDTWNVYDVSQFLRVNDCTAHCDTFSRNKIDGKRLLQLTKDDIMPLLGMKVGPALKISDLIAQLKCKVNPGRARSHKTNKSPFL

Variants of: B1
Conditions: with h4_human H4C16, P62805

| effect of a mutation on the interaction | Variant |
| --- | --- |
| decreasing interaction | Y948F |
| decreasing interaction | E947A |

Variants of: B1
Conditions: with h4_human H4C16, P62805
Remark: another data set of the same source

| effect of a mutation on the interaction | Variant |
| --- | --- |
| disrupting interaction | Y948F |
| disrupting interaction | E947A |

Variants of: B1
Conditions: with h4_human H4C16, P62805
Remark: another data set of the same source

| effect of a mutation on the interaction | Variant |
| --- | --- |
| decreasing interaction | D697A |

Variants of: B1
Conditions: with h33_human H3-3A

| effect of a mutation on the interaction | Variant |
| --- | --- |
| increasing interaction | D697A |

Variants of: B1
Conditions: with h33_human H3-3A
Remark: another data set of the same source

| effect of a mutation on the interaction | Variant |
| --- | --- |
| decreasing interaction | D808A |

Variants of: B1
Conditions: with h4_human H4C16, P62805
Remark: another data set of the same source

| effect of a mutation on the interaction | Variant |
| --- | --- |
| decreasing interaction | D808A |

Variants of: B1
Conditions: with h4_human H4C16, P62805
Remark: another data set of the same source

| effect of a mutation on the interaction | Variant |
| --- | --- |
| disrupting interaction | D917A |

Variants of: B1
Conditions: with h33_human H3-3A
Remark: another data set of the same source

| effect of a mutation on the interaction | Variant |
| --- | --- |
| disrupting interaction | D917A |
